Reference: PMC9715652, “Structural insights into mechanism and specificity of the plant protein O-fucosyltransferase SPINDLY” (Nature Communications, 2022)
Where a chain is given by its changes, count along the chain named. In names and notes the source's numbering stands.

B1: SPINDLY (SPY): S21A (protein)
parent chain: MVGLEDDTERERSPVVENGFSNGSRSSSSSAGVLSPSRKVTQGNDTLSYANILRARNKFADALALYEAMLEKDSKNVEAHIGKGICLQTQNKGNLAFDCFSEAIRLDPHNACALTHCGILHKEEGRLVEAAESYQKALMADASYKPAAECLAIVLTDLGTSLKLAGNTQEGIQKYYEALKIDPHYAPAYYNLGVVYSEMMQYDNALSCYEKAALERPMYAEAYCNMGVIYKNRGDLEMAITCYERCLAVSPNFEIAKNNMAIALTDLGTKVKLEGDVTQGVAYYKKALYYNWHYADAMYNLGVAYGEMLKFDMAIVFYELAFHFNPHCAEACNNLGVLYKDRDNLDKAVECYQMALSIKPNFAQSLNNLGVVYTVQGKMDAAASMIEKAILANPTYAEAFNNLGVLYRDAGNITMAIDAYEECLKIDPDSRNAGQNRLLAMNYINEGLDDKLFEAHRDWGWRFTRLHPQYTSWDNLKDPERPITIGYISPDFFTHSVSYFIEAPLTHHDYTKYKVVVYSAVVKADAKTYRFRDKVLKKGGVWKDIYGIDEKKIASMVREDKIDILVELTGHTANNKLGTMACRPAPVQVTWIGYPNTTGLPTVDYRITDSLADPPDTKQKQVEELVRLPDCFLCYTPSPEAGPVCPTPALSNGFVTFGSFNNLAKITPKVLQVWARILCAVPNSRLVVKCKPFCCDSIRQRFLTTLEQLGLESKRVDLLPLILFNHDHMQAYSLMDISLDTFPYAGTTTTCESLYMGVPCVTMAGSVHAHNVGVSLLTKVGLGHLVAKNEDEYVQLSVDLASDVTALSKLRMSLRDLMAGSPVCNGPSFAVGLESAYRNMWKKYCKGEVPSLRRMEMLQKEVHDDPLISKDLGPSRVSVTGEATPSLKANGSAPVPSSLPTQSPQLSKRMDSTS
B2: SPINDLY (SPY): self-fucosylated SPY (protein)
parent chain: B1 parent chain
B3: Arabidopsis SPINDLY (SPY), wild type, full-length (enzyme, Arabidopsis thaliana, UniProt Q96301 1-914, looked up)
chain: B1 parent chain
notes: Dimer in solution by SEC-MALS; also called wild type SPY; SPY^WT; not shown: His6, N-terminal, cleaved; SUMO, N-terminal, cleaved
B4: self-fucosylated SPY (enzyme, Arabidopsis thaliana, UniProt Q96301 1-914, looked up)
chain: B1 parent chain
modifications: O-fucose by self-fucosylation (major sites S21 and S24 by the paper's mutagenesis)
notes: SPINDLY (SPY), Arabidopsis thaliana, At3g11540, self-fucosylated sample run on gel filtration; Fucosylation of the sample was checked by western blotting with biotinylated AAL; also called SPY with fucosylation modification; source: E. coli BL21 (DE3), purified; self-fucosylated sample; not shown: His6, N-terminal, cleaved; SUMO, N-terminal, cleaved
B5: SPINDLY (SPY): S24A (protein)
parent chain: B1 parent chain
B6: engineered Arabidopsis SPY^C645S (enzyme, Arabidopsis thaliana, UniProt Q96301 1-914, looked up)
chain: B1 parent chain with C645S
notes: SPINDLY (SPY), Arabidopsis thaliana, At3g11540, full-length with C645S; Crystallised with GDP; residues 848-914 and most of 1-43 are invisible in the structure; also called SPY (in the SPY/GDP complex structure); catalytic SPY; not shown: His6, N-terminal, cleaved; SUMO, N-terminal, cleaved

Tests used:
[1] = in vitro fucosylation of DELLA1–205, AAL lectin blot; settings: glycan lost; control: wild type SPY
gel filtration = settings: glycan gained; control: wild type unmodified SPY
[2] = molecular target: the molecule itself; assay: SEC-MALS; ~500 μg loaded on Superdex 200 increase 10/300 connected to a HELEOS multi-angle light scattering instrument; 20 mM Tris pH 7.9, 300 mM NaCl, 0.5 mM TCEP
[3] = molecular target: the molecule itself; assay: SEC; Superdex 200 Increase 10/300 GL, 0.5 mL injected; 50 mM Tris pH 7.9, 300 mM NaCl, 0.5 mM TCEP, 2 mM benzamidine; samples incubated at 4 °C for 6 h; peak fractions on SDS-PAGE

| Protein | enzymatic_activity [1] | stoichiometry N [2] | other results |
| --- | --- | --- | --- |
| B1 | no change | – | – |
| B2 | – | – | oligomerisation (gel filtration): no change |
| B3 | – | 2 | – |
| B4 | – | – | stoichiometry N [3]: 2 |
| B5 | no change | – | – |
| B6 | – | 2 | – |
